Positions count from the first letter of the chain named. Names may count otherwise.
Experiments:
[1] = target: T1, His-tagged human recombinant FcγRIIa 167-Arg (Sino Biological, cat. no. 10374-H27H) (human, UniProt P12318 34-218); assay: SPR, His-tagged FcγR captured on anti-His chip, antibody injected
T1 construct: also called FcγRIIa[R]
T1 sequence (looked up): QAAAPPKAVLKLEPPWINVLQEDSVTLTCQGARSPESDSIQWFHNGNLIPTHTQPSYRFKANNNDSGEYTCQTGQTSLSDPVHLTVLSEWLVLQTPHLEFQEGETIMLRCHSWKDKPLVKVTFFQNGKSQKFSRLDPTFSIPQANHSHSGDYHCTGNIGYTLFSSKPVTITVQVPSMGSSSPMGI
Description: (§1) Biacore Series S Sensor Chips CM5 (Cytiva, cat. no. 29104988) were covalently coated with anti-His antibody using amine-coupling and His capture kits (Cytiva, cat. no. BR100050 and cat. no. 29234602) according to the manufacturer's instructions. […] After three start-up cycles of HBS-EP+ buffer, antibody samples were injected for 12 cycles per sample to generate binding curves using antibody concentration ranges of 0 to 3,000 nM for FcγRIa and 0 to 10,000 nM for the other FcγRs.
(§2) Dissociation from the anti-His-coated surface was performed by regeneration of the surface using 10 mM Glycine-HCl pH 1.5 (Cytiva, cat. no. BR100354).

[2] = target: T2, His-tagged human recombinant FcγRIIb (Sino Biological, cat. no. 10259-H27H-B) (human, UniProt P31994 43-217); assay: as above
T2 construct: also called FcγRII2b [sic]
T2 sequence (looked up): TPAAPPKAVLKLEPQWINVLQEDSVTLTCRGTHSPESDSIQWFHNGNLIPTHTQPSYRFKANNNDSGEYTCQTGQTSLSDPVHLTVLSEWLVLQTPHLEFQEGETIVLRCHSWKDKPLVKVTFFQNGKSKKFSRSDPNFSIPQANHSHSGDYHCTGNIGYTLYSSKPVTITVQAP
Description: as §1, §2

[3] = target: T3, His-tagged human recombinant FcγRIIIa 176-Phe (Sino Biological, cat. no. 10389-H27H) (human, UniProt P08637 17-208); assay: as above
T3 construct: also called FcγRIIIa[F]
T3 sequence (P08637 17-208 limits assumed): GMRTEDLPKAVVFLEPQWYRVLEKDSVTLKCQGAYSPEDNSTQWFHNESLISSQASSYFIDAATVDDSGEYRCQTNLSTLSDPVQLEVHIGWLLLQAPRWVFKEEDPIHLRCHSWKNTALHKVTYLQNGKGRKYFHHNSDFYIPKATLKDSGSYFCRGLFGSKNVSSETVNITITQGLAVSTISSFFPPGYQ
Description: as §1, §2

[4] = target: T4, His-tagged human recombinant FcγRIIa 167-His (Sino Biological, cat. no. 10374-H08H1) (human, UniProt P12318 34-218); assay: as above
T4 construct: also called FcγRIIa[H]
T4 sequence (looked up): T1 sequence (looked up) with R134H
Description: as §1, §2

[5] = target: T5, His-tagged human recombinant FcγRIIIa 176-Val (Sino Biological, cat. no. 10389-H27H1-B) (human, UniProt P08637 17-208); assay: as above
T5 construct: also called FcγRIIIa[V]
T5 sequence (P08637 17-208 F176V limits assumed): as the sequence (P08637 17-208 limits assumed) above, with F160V counted along it
Description: as §1, §2

[6] = target: His-tagged human recombinant FcγRIa (Sino Biological, cat. no. 10256-H08S-B) (human, UniProt P12314 16-288); assay: as above
His-tagged human recombinant FcγRIa (Sino Biological, cat. no. 10256-H08S-B), sequence (P12314 16-288 limits assumed, stated change not applied): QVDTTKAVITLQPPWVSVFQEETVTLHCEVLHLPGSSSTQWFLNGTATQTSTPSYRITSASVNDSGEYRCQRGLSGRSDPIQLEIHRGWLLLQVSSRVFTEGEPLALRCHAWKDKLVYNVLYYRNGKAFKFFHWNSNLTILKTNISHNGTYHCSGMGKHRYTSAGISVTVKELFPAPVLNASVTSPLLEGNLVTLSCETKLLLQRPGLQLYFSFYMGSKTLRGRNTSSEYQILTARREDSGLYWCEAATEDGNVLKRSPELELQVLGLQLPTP
Description: as §1, §2

[7] = target: T6, human OX40 expressed on cells (human, UniProt P43489 29-277); assay: flow cytometry, human T cells activated 2 days with anti-CD3/CD28 beads, 2 µg/mL sOX40L, anti-mouse Fc detection
T6 construct: also called CD134; TNFRSF4
T6 sequence: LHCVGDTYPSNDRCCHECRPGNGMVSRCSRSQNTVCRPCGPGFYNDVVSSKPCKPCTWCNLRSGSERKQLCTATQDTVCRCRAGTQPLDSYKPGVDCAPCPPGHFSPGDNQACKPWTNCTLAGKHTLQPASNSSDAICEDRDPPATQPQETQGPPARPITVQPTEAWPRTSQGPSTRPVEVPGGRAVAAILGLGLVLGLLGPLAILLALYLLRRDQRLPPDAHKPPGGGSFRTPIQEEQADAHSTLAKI
Description: Stimulated PBMCs were pelleted, resuspended in FACS buffer 2 (DPBS with 2% heat-inactivated FBS [Sigma-Aldrich, cat. no. F7524] and 2 mM EDTA [Sigma-Aldrich, cat. no. 03690]), and seeded (100,000 cells/well) in round-bottom 96-well plates (VWR International GmbH, cat. no. 734-197). […] Next, cells were washed twice in FACS buffer, and incubated with 30 μL of the antibody panel described in Table 11 diluted in FACS buffer 2 containing 1:1,500 Fixable Viability Stain eFluor 780 at 4° C. for 20 min, protected from light. The cells were subsequently washed twice with 120-150 μL FACS buffer 2 and measured on a BD FACSCelesta flow cytometer using a BD High Throughput sampler and subsequent analysis was done using FlowJo software.

Measured: binding result

B1: IgG1-CD134-003-HC6LC2-E345R (antibody)
heavy: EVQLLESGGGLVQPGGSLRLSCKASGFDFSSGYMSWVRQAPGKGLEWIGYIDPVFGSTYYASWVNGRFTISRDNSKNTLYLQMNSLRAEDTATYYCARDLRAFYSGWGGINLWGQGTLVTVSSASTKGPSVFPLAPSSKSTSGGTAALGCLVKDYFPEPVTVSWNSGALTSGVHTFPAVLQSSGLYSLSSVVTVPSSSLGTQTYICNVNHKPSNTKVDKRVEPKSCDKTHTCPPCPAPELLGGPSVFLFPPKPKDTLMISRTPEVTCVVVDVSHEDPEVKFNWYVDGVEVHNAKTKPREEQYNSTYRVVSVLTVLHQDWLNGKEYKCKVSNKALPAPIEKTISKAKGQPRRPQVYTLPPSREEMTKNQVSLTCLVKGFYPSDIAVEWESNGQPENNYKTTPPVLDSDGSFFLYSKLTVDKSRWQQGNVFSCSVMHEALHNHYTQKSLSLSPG
light: AAVLTQSPSSLSASVGDRVTITCQSSQIVVNNNFLSWYQQKPGKAPKLLIYDASNLASGVPDRFSGSGSGTDFTFTISSLQPEDIATYYCLGGYDDDAENAFGGGTKVEIKRTVAAPSVFIFPPSDEQLKSGTASVVCLLNNFYPREAKVQWKVDNALQSGNSQESVTEQDSKDSTYSLSSTLTLSKADYEKHKVYACEVTHQGLSSPVTKSFNRGEC
notes: also called variant of IgG1-CD134-003-HC6LC2-RR without Fc-inertness mutation; copies: 2 + 2
not listed: [7]
binds: all other assays above

B2: murine Fc-tagged human sOX40L (Sino Biological, cat. no. 13127-H04H) (Fc fusion, UniProt P23510 51-183, looked up)
chain: QVSHRYPRIQSIKVQFTEYKKEKGFILTSQKEDEIMKVQNNSVIINCDGFYLISLKGYFSQEVNISLHYQKDEEPLFQLKKVRSVNSLMVASLTYKDKVYLNVTTDNTSLDDFHVNGGELILIHQNPGEFCVL
notes: bought protein; also called soluble OX40L; not shown: murine Fc tag
binds: [7]
